Values of other authors in paper PMC3295331.

Target: Cav3.1 (UniProt O54898)
UniProt O54898, sequence (O54898 whole entry): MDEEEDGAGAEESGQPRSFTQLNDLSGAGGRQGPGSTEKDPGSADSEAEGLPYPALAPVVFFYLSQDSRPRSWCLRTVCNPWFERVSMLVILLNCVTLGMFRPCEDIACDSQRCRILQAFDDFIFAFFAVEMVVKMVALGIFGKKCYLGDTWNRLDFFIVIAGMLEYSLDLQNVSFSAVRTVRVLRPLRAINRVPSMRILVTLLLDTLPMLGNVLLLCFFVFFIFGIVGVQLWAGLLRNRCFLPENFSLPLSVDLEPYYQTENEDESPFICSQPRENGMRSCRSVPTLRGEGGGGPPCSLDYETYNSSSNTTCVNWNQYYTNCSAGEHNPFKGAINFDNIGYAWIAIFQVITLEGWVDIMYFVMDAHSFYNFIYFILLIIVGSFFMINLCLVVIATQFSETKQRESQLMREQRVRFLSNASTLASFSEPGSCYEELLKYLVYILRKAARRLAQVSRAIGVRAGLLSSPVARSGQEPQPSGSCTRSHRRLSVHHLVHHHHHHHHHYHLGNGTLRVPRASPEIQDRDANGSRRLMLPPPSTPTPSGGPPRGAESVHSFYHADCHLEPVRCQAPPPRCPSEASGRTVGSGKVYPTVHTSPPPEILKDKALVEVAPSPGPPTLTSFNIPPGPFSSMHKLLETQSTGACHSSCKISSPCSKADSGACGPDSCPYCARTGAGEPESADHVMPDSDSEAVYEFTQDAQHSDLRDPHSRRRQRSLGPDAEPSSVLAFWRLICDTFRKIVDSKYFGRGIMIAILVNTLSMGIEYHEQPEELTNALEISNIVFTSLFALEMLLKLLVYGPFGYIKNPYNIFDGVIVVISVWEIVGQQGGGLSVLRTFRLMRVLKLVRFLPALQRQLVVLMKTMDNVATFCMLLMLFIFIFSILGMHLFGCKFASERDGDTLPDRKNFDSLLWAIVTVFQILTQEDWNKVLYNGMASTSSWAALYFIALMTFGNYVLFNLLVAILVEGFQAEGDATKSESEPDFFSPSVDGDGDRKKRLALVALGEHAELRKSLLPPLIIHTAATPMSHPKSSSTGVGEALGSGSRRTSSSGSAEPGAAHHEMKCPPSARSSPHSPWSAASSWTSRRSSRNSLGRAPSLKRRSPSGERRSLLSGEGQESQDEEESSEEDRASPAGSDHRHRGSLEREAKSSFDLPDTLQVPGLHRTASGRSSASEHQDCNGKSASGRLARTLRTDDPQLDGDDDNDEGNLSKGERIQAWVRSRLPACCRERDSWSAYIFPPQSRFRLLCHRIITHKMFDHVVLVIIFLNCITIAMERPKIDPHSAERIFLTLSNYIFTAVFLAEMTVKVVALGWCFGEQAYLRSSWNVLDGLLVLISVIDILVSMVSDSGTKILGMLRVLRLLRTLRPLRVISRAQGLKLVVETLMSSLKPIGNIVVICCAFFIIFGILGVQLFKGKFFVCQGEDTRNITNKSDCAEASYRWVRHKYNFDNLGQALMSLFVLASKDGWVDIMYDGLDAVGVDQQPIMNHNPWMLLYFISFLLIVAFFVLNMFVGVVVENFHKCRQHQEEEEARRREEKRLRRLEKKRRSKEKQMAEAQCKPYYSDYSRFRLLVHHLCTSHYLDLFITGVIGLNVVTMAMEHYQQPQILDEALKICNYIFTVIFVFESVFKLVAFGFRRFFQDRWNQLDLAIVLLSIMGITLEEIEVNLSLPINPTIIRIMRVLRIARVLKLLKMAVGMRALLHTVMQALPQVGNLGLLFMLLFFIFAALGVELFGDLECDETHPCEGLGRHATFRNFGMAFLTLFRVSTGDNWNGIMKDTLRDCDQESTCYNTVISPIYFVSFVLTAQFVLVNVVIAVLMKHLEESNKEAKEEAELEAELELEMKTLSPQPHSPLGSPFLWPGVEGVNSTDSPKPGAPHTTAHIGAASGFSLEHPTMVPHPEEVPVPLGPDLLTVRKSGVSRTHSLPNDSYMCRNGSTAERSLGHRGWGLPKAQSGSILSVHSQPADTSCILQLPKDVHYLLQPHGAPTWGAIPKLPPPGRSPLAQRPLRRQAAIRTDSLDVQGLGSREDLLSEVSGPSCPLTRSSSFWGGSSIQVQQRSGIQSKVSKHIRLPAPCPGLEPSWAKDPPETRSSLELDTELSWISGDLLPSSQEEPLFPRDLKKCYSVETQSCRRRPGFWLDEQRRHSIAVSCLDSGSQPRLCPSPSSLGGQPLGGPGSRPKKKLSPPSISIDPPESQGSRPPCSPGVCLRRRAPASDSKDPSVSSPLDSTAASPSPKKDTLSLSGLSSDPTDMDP

## Kurtoxin (from UniProt P58910)
  Kd: 0.015 µM
